Laboratory results as given in IntAct's records for PubMed 11238466.

B1: CARD domain-containing protein E10 (Equine herpesvirus 2 (strain 86/87)), Q66677 (parent)
chain: MAEKYPLQAGDPCVTLTEEDIWDVERLCLEELRVLLVSHLKSHKHLDHLRAKKILSREDAEEVSSRATSRSRAGLLVDMCQDHPRGFQCLKESCKNEVGQEHLVDLLERAFEKHCGDKLTQKWWESGADGRNPRRPPGSEDNSGYTALLPTNPSGGGPSIGSGHSRPRGRDDSGGIGGGVYPFSHGGARVVGGGWGGWGESGGAGRGGSLLSGGHGGHPPHGGPGGGGRDYYGGGGSGYYESIPEPANFPNSGGGGRGGGVRYDAGGDGRLGGLPPDPQEVDDPSLSVQGRGGPAPDPPSPPLRTRRFFCC
partner: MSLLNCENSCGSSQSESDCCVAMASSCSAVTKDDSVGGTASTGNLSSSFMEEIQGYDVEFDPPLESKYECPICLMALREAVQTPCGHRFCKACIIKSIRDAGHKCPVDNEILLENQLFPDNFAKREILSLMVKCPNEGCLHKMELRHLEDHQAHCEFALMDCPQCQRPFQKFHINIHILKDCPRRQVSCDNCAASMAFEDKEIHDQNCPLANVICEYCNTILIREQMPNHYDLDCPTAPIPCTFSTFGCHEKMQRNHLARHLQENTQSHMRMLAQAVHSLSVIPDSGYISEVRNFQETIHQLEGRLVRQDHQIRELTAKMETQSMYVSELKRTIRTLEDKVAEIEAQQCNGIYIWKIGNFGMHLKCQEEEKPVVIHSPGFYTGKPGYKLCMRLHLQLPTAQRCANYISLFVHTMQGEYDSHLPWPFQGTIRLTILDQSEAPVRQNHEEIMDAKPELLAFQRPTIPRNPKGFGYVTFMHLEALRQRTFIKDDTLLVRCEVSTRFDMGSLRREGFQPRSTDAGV
B2: CARD domain-containing protein E10 (Equine herpesvirus 2 (strain 86/87)), Q66677 (parent)
chain: B1 chain
partner: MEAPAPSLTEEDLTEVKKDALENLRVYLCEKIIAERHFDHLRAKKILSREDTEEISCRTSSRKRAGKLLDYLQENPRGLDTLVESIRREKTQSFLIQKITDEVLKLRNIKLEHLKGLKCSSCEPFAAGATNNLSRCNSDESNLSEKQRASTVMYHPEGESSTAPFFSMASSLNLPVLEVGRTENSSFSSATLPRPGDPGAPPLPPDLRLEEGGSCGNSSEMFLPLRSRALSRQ

Variants of: B1
Conditions: with traf6_human TRAF6, Q9Y4K3

Row | Variant | effect of a mutation on the interaction
1 | P278G;E280A | decreasing interaction

Variants of: B2
Conditions: with bcl10_mouse Bcl10, Q9Z0H7

Row | Variant | effect of a mutation on the interaction
2 | L49R | decreasing interaction
